# Laboratory results published in patent US20170189529A1 (CONTRAFECT, published 2017).
# Like-named read-outs stand apart in the source and are kept apart here.
# B1: TRL846 (antibody, V domains shown)
# VH: QVQLVESGGGLVQPGGSLRLSCTVSGFTFNSYAMNWVRQAPGKGLEWVSGIRGSGENTYYAETVKGRFTISRDNSKNTLYLEMNSLRAEDTAVYYCARKWGRMTVFGVATDQLYYFDYWGQGTLVTVSS
# VL: DITLTQSPATLSVSPGERATLSCRASQSVSSNLAWYQQKPGQAPRLLIYGASNRATDIPARFSGSGSGTEFTLTISSLQSEDFAVYYCQQFNDWPFLTFGGGTKVEIKR
# B2: TRL854 (antibody, V domains shown)
# VH: QVQLVESGAEVKKPGASVRVSCKGSGYTFTAYHMHWVRQAPGQGFEWVGWINPNSGATYYTSTFEGRVTMTRDTSITTAYMELSSLRSDDTAVYYCATDIVVERDASLGGFNSYGMDVWGQGTTVTVSS
# VL: DIEMTQSPLSLPVTPGEPASISCRSSQSLLHSNGYNHLAWYLQKPGRSPHLLIYLASTRASGVPDRFSGSGSGTDFTLKISRVEAEDVGIYYCMQSLQTSITFGQGTRLEIKR
# B3: TRL845 (antibody, V domains shown)
# VH: QVQLVQSGGDLVQPGGSLRLSCAASGFTFSRYSMNWVRQAPGMGLEWVAYISDTSRTIYYADSVKGRFTISRDNAKNSLYLQMKSLRDEDTAVYYCARDPDTPFVRAFDSWGQGTLVTVSS
# VL: DIVLTQSPSFLSASVGDRVTITCRASQLISSYFAWYQQKPGKPPKLLIYAASTLQSGVPSRFSGSGSGTQFSLTISSLQPEDFATYYCQQLNSYPPITFGQGTRLEIKR
# B4: TRL053 (antibody, V domains shown)
# VH: QVQLVQSGAEVRKPGSSVKVSCKVSGGIIRKYAINWVRQAPGQGLEWMGGIIAIFNTANYAQKFQGRVTITADESTSTVYMELSSLRSEDTALYYCARGMNYYSDYFDYWGQGSLVTVSP
# VL: EIVLTQSPGTLSLSPGERATLSCRASQSVRSNNLAWYQHKPGQAPRLLIFGASSRATGIPDRFSGSGSGTDFTLTISRLEPEDFAVYYCQQYGSSPALTFGGGTKVEIKR
# B5: TRL579 (antibody, V domains shown)
# VH: QVQLVQSGAEVKKPGASVKVSCKTSGYTFTAYTIHWVRQAPGQRLEWMGWINAGNGHTKYSQRFKGRVTITRDTSARTTYMELRSLTSEDTALYFCARGPETYYYDKTNWLNSHPDEYFQHWGHGTQVTVSS
# VL: DIQMTQSPSTLSASVGDRVTITCRASQTINNYLAWYQQKPGKAPKLLIYKASSLESGVPSRFSGSGSGTEFTLTISSLQPDDFATYYCQEYNNDSPLTFGGGTKVEIKR
# B6: TRL848 (antibody, V domains shown)
# VH: QVQLLESGGDVVQPGTSLRLSCAASGFSLWTSGMHWVRQAPGKGLEWVAVMSYDETKKYYADSVRGRFSISRDNSRNTLYLQMNSLRVEDTAVYFCAKPRLDYLDYFHAADSWGQGTLVSVSS
# VL: DIVLTQPPSVSVAPGQTATITCGGNYIGSKSVNWYQQRPGHAPVLVVYDDSDRPSGIPDRFSGSNSRSTATTATLTISRVEAGDEADYYCQVWETSEDLWVFGGGTKLTVLG
# Tests used:
# [1] = biological target: T1, hemagglutinin (HA) of influenza B virus B/Florida (Yamagata lineage) (influenza B virus B/Florida/06 …)
# [2] = biological target: T2, hemagglutinin (HA) of influenza B virus B/Malaysia (Victoria lineage) (influenza B virus B/Malaysia/04 …)
# [3] = biological target: T1, hemagglutinin (HA) of influenza B virus …; assay: recombinant HA ELISA (AttoPhos fluorescence, mean of triplicates)
# [4] = biological target: recombinant HA of influenza B virus B/Brisbane/08 (Victoria clade) (influenza B virus B/Brisbane/08 …); assay: as above
# [5] = biological target: recombinant HA of influenza B virus B/Wisconsin/10 (Yamagata clade) (influenza B virus B/Wisconsin/10 …); assay: as above
# [6] = biological target: recombinant HA of influenza B virus B/Mass/12 (Yamagata clade) (influenza B virus B/Mass/12 (Yamagata …)); assay: as above
# [7] = biological target: T2, hemagglutinin (HA) of influenza B virus …; assay: as above
# [8] = biological target: T2, hemagglutinin (HA) of influenza B virus …; assay: affinity determination (method not stated there; data not shown)
# [9] = biological target: T1, hemagglutinin (HA) of influenza B virus …; assay: ForteBio Octet; antigen on the sensor, varying antibody concentrations
# [10] = biological target: T2, hemagglutinin (HA) of influenza B virus …; assay: as above
# [11] = biological target: H2 Japan/305/1957 HA monomer (influenza A virus H2 Japan/305/1957, UniProt P03451 16-525); assay: kinetic binding to HA monomer (instrument not stated)
# [12] = biological target: hemagglutinin of influenza A virus A/CA/04/09 (H1), on virus (influenza A virus H1 A/CA/04/09); assay: cell-based or functional assay
# [13] = biological target: hemagglutinin of influenza A virus A/mallard/MN/AI08-3881/08 (H2), on virus (influenza A virus H2 …); assay: cell-based or functional assay
# [14] = biological target: hemagglutinin of influenza A virus A/Mallard/MN/182753/98 (H9), on virus (influenza A virus H9 …); assay: cell-based or functional assay
# [15] = biological target: hemagglutinin of influenza A virus A/HongKong/68, on virus (influenza A virus A/HongKong/68); assay: cell-based or functional assay
# [16] = biological target: hemagglutinin of influenza A virus A/Netherlands/219/03, on virus (influenza A virus A/Netherlands/219/03); assay: cell-based or functional assay
# [17] = biological target: hemagglutinin of influenza A virus A/Philippines/2/82 x-79, on virus (influenza A virus A/Philippines/2/82 …); assay: cell-based or functional assay
# [18] = biological target: hemagglutinin of influenza A virus A/Perth/16/2009 (H3), on virus (influenza A virus H3 A/Perth/16/2009); assay: cell-based or functional assay
# [19] = biological target: hemagglutinin of influenza A virus A/New York/55/2004, on virus (influenza A virus A/New York/55/2004); assay: cell-based or functional assay
# [20] = biological target: hemagglutinin of influenza A virus A/Canada/rv444/04 (H7), on virus (influenza A virus H7 A/Canada/rv444/04); assay: cell-based or functional assay
# [21] = biological target: hemagglutinin of influenza A virus A/Wisconsin/67/2005, on virus (influenza A virus A/Wisconsin/67/2005); assay: cell-based or functional assay
# [22] = biological target: hemagglutinin of influenza A virus A/Northern Shoveler (H10), on virus (influenza A virus H10 A/Northern …); assay: cell-based or functional assay
# [23] = biological target: hemagglutinin of influenza A virus A/SW/MN/02719, on virus (influenza A virus A/SW/MN/02719); assay: cell-based or functional assay
# [24] = biological target: hemagglutinin of influenza A virus A/Udorn/307/1976, on virus (influenza A virus A/Udorn/307/1976); assay: cell-based or functional assay
# [25] = biological target: hemagglutinin of influenza A virus A/Bufflehead (H4), on virus (influenza A virus H4 A/Bufflehead); assay: cell-based or functional assay
# [26] = biological target: T3, H3 Hong Kong/8/68 HA trimer (influenza A virus H3 Hong Kong/8/68); assay: kinetic binding to HA trimer (instrument not stated)
# T3 construct: Trimeric HA
Binder,Kd [1] [nM],fold reactivity over background [3] [fold over background],fold reactivity over background [4] [fold over background],fold reactivity over background [5] [fold over background],fold reactivity over background [6] [fold over background],fold reactivity over background [7] [fold over background],Kd [9] [nM],Kd [10] [nM],further results
B1,0.85,25.6,25.6,25.6,25.6,25.6,,,Kd [2]: < 1 nM
B2,8.8,25.6,25.6,25.6,25.6,25.6,,,Kd [8]: < 1 nM
B3,0.19,25.6,25.6,25.6,25.6,25.6,5.2,< 1,
B4,,1.1,1,2.8,1,1.6,,,"Kd [11]: 12.3 nM; koff [11]: 6.8e-05 s⁻¹; kon [11]: 5500 M⁻¹ s⁻¹; IC50 (ug/ml), MDCK monolayer microneutralization assay [12]: 0.9 µg/mL; IC50 (ug/ml), MDCK monolayer microneutralization assay [13]: 0.3 µg/mL; IC50 (ug/ml), MDCK monolayer microneutralization assay [14]: 0.1 µg/mL"
B5,,1,1,1,3.2,1.1,,,"IC50 (ug/ml), MDCK monolayer microneutralization assay [15]: 2.8 µg/mL; IC50 (ug/ml), MDCK monolayer microneutralization assay [16]: 0.6 µg/mL; IC50 (ug/ml), MDCK monolayer microneutralization assay [17]: 0.9 µg/mL; IC50 (ug/ml), MDCK monolayer microneutralization assay [18]: 0.2 µg/mL; IC50 (ug/ml), MDCK monolayer microneutralization assay [19]: 1.1 µg/mL; IC50 (ug/ml), MDCK monolayer microneutralization assay [20]: 1.6 µg/mL; IC50 (ug/ml), MDCK monolayer microneutralization assay [21]: 1 µg/mL; IC50 (ug/ml), MDCK monolayer microneutralization assay [22]: 0.8 µg/mL; IC50 (ug/ml), MDCK monolayer microneutralization assay [23]: 3.9 µg/mL; IC50 (ug/ml), MDCK monolayer microneutralization assay [24]: 1.9 µg/mL; IC50 (ug/ml), MDCK monolayer microneutralization assay [25]: 15.5 µg/mL; Kd [26]: 0.2 nM; koff [26]: 5.8e-05 s⁻¹; kon [26]: 250000 M⁻¹ s⁻¹"
B6,1.7,25.6,25.6,25.6,25.6,25.6,3.9,< 1,
